Measured values taken from article doi:10.1101/2024.09.12.612615.

Target: Asp64 (UniProt position 64, EGCPTDSIKVA)
Assay: kinetics
Conditions: 28 °C; reduced [4Fe-4S] cluster undergoing air oxidation

## [4Fe-4S] ferredoxin (BtFd) (Bacillus thermoproteolyticus)
  pKa: between a pH of 6.0 to 7.0
